Laboratory results: PMC11984393

Target: CD8 (T-cell surface marker) (Mus musculus) (UniProt P01731)
Experiment: flow cytometry
Settings: 30 min, live-cell binding, 30 min incubation, buffer, salt, pH and temperature not given in the material

Sequence of UniProt P01731 (P01731 whole entry): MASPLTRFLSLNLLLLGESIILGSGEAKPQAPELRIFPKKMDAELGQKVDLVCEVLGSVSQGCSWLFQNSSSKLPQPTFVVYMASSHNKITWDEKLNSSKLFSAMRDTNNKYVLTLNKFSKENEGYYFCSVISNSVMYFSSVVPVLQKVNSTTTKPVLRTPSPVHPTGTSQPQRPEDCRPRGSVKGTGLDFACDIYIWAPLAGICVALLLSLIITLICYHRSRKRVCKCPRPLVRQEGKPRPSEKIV

TTTTTTTTTTCCAGAGTGACGCAGCAACAGAGGTGTAGAAGTACACGTGAACAAGCTTGAAATTGTCTCCGACAGAGGTGGACACGGTGGCTTTTAGT [Apt-CD8-FAM]
binding signal (% positive cells): 44.4

TTTTTAAGTAATGTATTTAAATTGCGAACTACTACTCTCTCTATATATTGCGAACTACTACTCTCTCTATATTAAAGGAAGGATCTCA [Apt-random-FAM]
binding signal (% positive cells) (negative control): 0.74
